The values that follow come from patent US20180346571A1.

Experiment [1] concerns the target mouse PD-L1-CD4TM-GFP expressed on HEK-293 cells (mouse) (UniProt Q9EP73). Nature of the experiment: FACS on HEK-293 cells transfected with mPD-L1-GFP, secondary antibody alone (negative control).
Experiment [2] concerns the target cynomolgus PD-L1-CD4TM-GFP expressed on HEK-293 cells (cynomolgus) (UniProt G7PSE7). Nature of the experiment: FACS on HEK-293 cells transfected with cyno PD-L1-GFP, secondary antibody alone (negative control).
The target of experiment [3] is human PD-L1 ECD-CD4TM-GFP expressed on HEK-293 / HEK-293T cells (human) (UniProt Q9NZQ7). Nature of the experiment: FACS on HEK-293 cells transfected with hPD-L1-GFP, secondary antibody alone (negative control).
Experiment [4] shares this target. Nature of the experiment: FACS on HEK-293T cells expressing hPD-L1-GFP, control panel headed anti-mFc-PE in the row 'No antibody' (taken as the control without PD-1-Fc of paragraph 289).

UniProt Q9NZQ7, sequence (Q9NZQ7 19-238): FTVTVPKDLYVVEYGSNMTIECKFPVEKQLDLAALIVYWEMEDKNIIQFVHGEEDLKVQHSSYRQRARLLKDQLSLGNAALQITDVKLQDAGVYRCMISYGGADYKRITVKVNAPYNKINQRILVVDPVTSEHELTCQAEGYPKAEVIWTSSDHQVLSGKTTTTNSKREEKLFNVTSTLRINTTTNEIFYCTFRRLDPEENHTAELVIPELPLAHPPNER
UniProt Q9EP73, sequence (Q9EP73 19-239): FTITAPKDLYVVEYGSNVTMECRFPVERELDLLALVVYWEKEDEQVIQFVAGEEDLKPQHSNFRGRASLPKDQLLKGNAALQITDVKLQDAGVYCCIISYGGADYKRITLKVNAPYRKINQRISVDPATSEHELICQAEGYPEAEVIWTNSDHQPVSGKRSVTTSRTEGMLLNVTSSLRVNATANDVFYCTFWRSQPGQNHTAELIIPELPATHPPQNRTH
UniProt G7PSE7, sequence (G7PSE7 entry or part of it limits assumed): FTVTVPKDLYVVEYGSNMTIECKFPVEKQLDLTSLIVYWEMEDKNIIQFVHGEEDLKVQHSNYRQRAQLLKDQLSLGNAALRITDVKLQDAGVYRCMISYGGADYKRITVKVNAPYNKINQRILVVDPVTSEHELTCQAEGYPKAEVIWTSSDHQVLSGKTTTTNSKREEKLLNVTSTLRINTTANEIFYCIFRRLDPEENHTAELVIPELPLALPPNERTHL

Only anti-hFc Ab (antibody): the MFI in experiment [1], in experiment [2] and in experiment [3] was 3 throughout.

Only anti-mFc Ab (antibody) came in with an MFI in experiment [3] of 6.

Consider anti-mFc-PE (antibody), for which the MFI in experiment [4] came out at 10.
